Results: the supplement of paper PMC7877785
± gives the uncertainty stated by the source.

Test: self-splicing fitness, log relative to wild type (ln ratio); higher = more splicing; Tetrahymena group I intron in knt gene, E. coli kanamycin selection, DiMSum; sequences stand for … in CUCUCU…GGAGGGAAAAGUUAUCAGGCAUGCACCUGGUAGCUAGUCUUUAAACCAAUAGAUUGCAUCGGUUUAAAAGGCAAGACCGUCAAAUUGCGGGAAAGGGGUCAACAGCCGUUCAGUACCAAGUCUCAGGGGAAACUUUGAGAUGGCCUUGCAAAGGGUAUGGUAAUAAGCUGACGGACAUGGUCCUAACCACGCAGCCAAGUCCUAAGUCAACAGAUCUUCUGUUGAUAUGGAUGCAGUUCACAGACUAAAUGUCGGUCGGGGAAGAUGUAUUCUUCUCAUAAGAUAUAGUCGGACCUCUCCUUAAUGGGAGCUAGCGGAUGAAGUGAUGCAACACUGGAGCCGCUGGGAACUAAUUUGUAUGCGAAAGUAUAUUGAUUAGUUUUGGAGUACUCGUGGUCG
Method in brief: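 Fitness was computed with DiMSum as the error-weighted combination of replicate fold changes, kanamycin versus none, each normalised to wild type. The library randomised all eight intron nucleotides of the P1ex region, with the intron placed in the knt kanamycin-resistance gene on pET-22b(+) in E. coli BL21(DE3). Six replicate transformations were grown overnight at 37°C or 30°C on LB agar with or without 25 μg/mL kanamycin, plus 100 μg/mL carbenicillin, 50 μM IPTG and 0.2% rhamnose. Pooled colonies were amplicon-sequenced on an Illumina HiSeq 2500.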

Sequence | self-splicing fitness (ln) (30 °C) | self-splicing fitness (ln) (37 °C)
UAGCAGCAAUAUUACGGAGC | -2.95 ± 0.44 | -1.74 ± 0.49
UUCAAGCAAUAUUACGCUAG | -2.23 ± 0.23 | -2.32 ± 0.26
CUGCAGCAAUAUUACGCUUG | -3.55 ± 0.2 | -2.25 ± 0.22
GUCAAGCAAUAUUACGAGGG | -4.08 ± 0.42 | -3.38 ± 0.3
AGUUAGCAAUAUUACGGGCC | -2.24 ± 0.21 | -1.61 ± 0.18
AGAGAGCAAUAUUACGGCGA | -2.95 ± 0.39 | -1.82 ± 0.39
GUCAAGCAAUAUUACGACUU | -3.18 ± 0.099 | -1.86 ± 0.1
UUUUAGCAAUAUUACGCCGA | -1.15 ± 0.29 | -0.282 ± 0.32
GGAAAGCAAUAUUACGAAUC | -1.73 ± 0.14 | -1.5 ± 0.17
AUACAGCAAUAUUACGCUCG | -0.288 ± 0.12 | -0.205 ± 0.15
CUCGAGCAAUAUUACGGGAU | -3.84 ± 0.36 | -1.93 ± 0.3
UCUAAGCAAUAUUACGUCCC |  | -0.386 ± 0.41
GCACAGCAAUAUUACGAGUC | -2.62 ± 0.069 | -1.29 ± 0.065
CCGUAGCAAUAUUACGGGGG | -4.09 ± 0.24 | -3.23 ± 0.26
GCUAAGCAAUAUUACGUGCG | -1.07 ± 0.086 | 0.103 ± 0.1
CAUAAGCAAUAUUACGGACC | -3.27 ± 0.31 | -3.87 ± 0.23
UACUAGCAAUAUUACGUAAG | -4.32 ± 0.31 | -3.07 ± 0.3
UAUAAGCAAUAUUACGCUGU | -2.45 ± 0.2 | -3.32 ± 0.35
UUUAAGCAAUAUUACGUUAA | -1.68 ± 0.23 | -1.38 ± 0.18

Sequence | self-splicing fitness (ln) (30 °C) | self-splicing fitness (ln) (37 °C)
UUGUAGCAAUAUUACGACGG | -0.599 ± 0.16 | -1.63 ± 0.17
UGUGAGCAAUAUUACGCUUA | -2.52 ± 0.27 | -2.85 ± 0.27
UGUAAGCAAUAUUACGAAUU | -2.57 ± 0.25 | -1.64 ± 0.19
CCGAAGCAAUAUUACGUGAC |  | -1.4 ± 0.2
CCUGAGCAAUAUUACGGAGU | -3.26 ± 0.31 | -1.92 ± 0.18
UUUGAGCAAUAUUACGGCAG | -1.6 ± 0.17 | -1.56 ± 0.21
CCCAAGCAAUAUUACGAACG | -3.72 ± 0.25 | -3.46 ± 0.2
UCUUAGCAAUAUUACGAAGG | -2 ± 0.39 | 1.19 ± 0.23
GUCAAGCAAUAUUACGAAUC | -2.16 ± 0.11 | -0.596 ± 0.12
GCUCAGCAAUAUUACGUUCU | -0.649 ± 0.074 | -0.195 ± 0.09
CCCAAGCAAUAUUACGUUGU | -3.3 ± 0.095 | -2.43 ± 0.11
AGCGAGCAAUAUUACGCAAA | -3.01 ± 0.36 | -2.52 ± 0.48
AAGUAGCAAUAUUACGCUCU | -1.25 ± 0.18 | -1.29 ± 0.17
UGCGAGCAAUAUUACGAGCG | -2.92 ± 0.33 | -2.07 ± 0.3
CCUAAGCAAUAUUACGACCU | -3.17 ± 0.35 | -2.34 ± 0.31
CUUCAGCAAUAUUACGUCUG | -2.73 ± 0.12 | -1.48 ± 0.16
GCCGAGCAAUAUUACGUAGU | -1.34 ± 0.14 | -0.503 ± 0.16
GCGCAGCAAUAUUACGGCAA | -0.734 ± 0.14 | -0.814 ± 0.14
CAAGAGCAAUAUUACGCUAC | -2.4 ± 0.26 | -1.66 ± 0.38
